Results: IntAct's records for PubMed 23727230

Target: prp8_yeast PRP8 (UniProt P33334)
Sequence (P33334 whole entry): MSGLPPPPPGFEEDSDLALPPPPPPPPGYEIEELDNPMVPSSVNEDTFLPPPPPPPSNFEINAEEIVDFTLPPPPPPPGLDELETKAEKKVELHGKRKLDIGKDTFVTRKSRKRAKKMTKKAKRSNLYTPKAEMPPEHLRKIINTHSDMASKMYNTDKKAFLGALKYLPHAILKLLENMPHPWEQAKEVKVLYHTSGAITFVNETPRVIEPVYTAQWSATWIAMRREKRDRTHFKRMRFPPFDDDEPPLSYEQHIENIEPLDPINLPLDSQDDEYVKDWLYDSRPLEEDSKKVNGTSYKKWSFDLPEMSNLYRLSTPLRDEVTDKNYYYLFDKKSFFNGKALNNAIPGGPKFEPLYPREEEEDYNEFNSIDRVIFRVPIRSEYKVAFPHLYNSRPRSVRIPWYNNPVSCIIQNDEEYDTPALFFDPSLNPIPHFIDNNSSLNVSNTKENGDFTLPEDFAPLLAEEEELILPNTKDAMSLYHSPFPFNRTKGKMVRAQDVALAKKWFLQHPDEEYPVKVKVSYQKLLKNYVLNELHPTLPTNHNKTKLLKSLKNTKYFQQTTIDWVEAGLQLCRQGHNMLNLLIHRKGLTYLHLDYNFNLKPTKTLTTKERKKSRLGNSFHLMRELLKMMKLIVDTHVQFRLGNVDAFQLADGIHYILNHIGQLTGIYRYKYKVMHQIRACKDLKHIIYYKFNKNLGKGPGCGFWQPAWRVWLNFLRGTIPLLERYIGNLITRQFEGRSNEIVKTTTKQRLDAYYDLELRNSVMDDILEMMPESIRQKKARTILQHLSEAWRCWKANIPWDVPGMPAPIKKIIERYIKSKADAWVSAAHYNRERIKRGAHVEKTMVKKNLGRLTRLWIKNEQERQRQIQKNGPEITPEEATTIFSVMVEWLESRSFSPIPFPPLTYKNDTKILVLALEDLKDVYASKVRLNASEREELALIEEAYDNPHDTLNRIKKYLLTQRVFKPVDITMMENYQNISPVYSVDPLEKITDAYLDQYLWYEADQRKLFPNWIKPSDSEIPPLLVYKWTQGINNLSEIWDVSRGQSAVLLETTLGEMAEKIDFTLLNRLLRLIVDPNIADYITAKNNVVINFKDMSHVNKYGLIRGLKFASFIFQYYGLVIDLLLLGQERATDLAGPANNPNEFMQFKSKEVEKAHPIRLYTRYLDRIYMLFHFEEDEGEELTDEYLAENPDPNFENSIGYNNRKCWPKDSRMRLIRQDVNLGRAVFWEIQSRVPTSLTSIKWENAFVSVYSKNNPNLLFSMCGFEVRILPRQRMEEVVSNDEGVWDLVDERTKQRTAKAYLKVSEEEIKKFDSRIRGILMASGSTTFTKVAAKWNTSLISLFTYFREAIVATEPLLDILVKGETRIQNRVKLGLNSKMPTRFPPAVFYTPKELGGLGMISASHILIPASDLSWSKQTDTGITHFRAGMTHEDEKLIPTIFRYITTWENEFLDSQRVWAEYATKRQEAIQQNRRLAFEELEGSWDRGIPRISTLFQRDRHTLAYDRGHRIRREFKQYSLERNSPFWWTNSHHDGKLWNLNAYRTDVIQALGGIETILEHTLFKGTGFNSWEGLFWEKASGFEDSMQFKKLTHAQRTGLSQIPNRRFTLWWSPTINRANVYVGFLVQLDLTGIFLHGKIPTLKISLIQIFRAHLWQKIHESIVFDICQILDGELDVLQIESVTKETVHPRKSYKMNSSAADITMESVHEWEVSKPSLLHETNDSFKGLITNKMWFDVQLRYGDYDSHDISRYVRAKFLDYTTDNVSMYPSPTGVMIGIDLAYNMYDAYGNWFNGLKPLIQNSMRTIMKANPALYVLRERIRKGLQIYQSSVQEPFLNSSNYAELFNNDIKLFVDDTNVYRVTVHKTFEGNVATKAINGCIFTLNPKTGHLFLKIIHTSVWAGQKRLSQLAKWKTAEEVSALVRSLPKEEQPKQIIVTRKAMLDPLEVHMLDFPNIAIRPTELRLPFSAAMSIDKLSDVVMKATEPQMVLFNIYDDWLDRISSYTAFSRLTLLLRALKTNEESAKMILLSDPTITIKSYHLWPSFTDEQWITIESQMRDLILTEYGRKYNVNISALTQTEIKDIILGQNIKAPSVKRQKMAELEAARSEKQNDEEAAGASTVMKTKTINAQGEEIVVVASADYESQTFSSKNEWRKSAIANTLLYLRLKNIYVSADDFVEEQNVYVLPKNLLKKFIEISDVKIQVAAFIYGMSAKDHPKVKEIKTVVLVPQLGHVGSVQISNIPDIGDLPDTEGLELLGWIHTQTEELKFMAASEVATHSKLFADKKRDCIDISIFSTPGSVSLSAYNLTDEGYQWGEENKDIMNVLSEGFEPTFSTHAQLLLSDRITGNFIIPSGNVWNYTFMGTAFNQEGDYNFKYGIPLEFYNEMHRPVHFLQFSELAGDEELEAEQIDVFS

For “Pre-mRNA-splicing helicase BRR2 (Saccharomyces cerevisiae), P32639 D1247A;D1249A”, the “effect of a mutation on the interaction” value was “decreasing interaction strength”.
